B1: CTF1: COUP-TF1 (NR2F1), cDNA driver (protein, UniProt P10589 1-423, looked up)
COUP transcription factor 1: MAMVVSSWRDPQDDVAGGNPGGPNPAAQAARGGGGGAGEQQQQAGSGAPHTPQTPGQPGAPATPGTAGDKGQGPPGSGQSQQHIECVVCGDKSSGKHYGQFTCEGCKSFFKRSVRRNLTYTCRANRNCPIDQHHRNQCQYCRLKKCLKVGMRREAVQRGRMPPTQPNPGQYALTNGDPLNGHCYLSGYISLLLRAEPYPTSRYGSQCMQPNNIMGIENICELAARLLFSAVEWARNIPFFPDLQITDQVSLLRLTWSELFVLNAAQCSMPLHVAPLLAAAGLHASPMSADRVVAFMDHIRIFQEQVEKLKALHVDSAEYSCLKAIVLFTSDACGLSDAAHIESLQEKSQCALEEYVRSQYPNQPSRFGKLLLRLPSLRTVSSSVIEQLFFVRLVGKTPIETLIRDMLLSGSSFNWPYMSIQCS
B2: TR4: Testicular Orphan Nuclear Receptor 4 (NR2C2), cDNA driver (protein, UniProt P49116 1-596, looked up)
Nuclear receptor subfamily 2 …: MTSPSPRIQIISTDSAVASPQRIQIVTDQQTGQKIQIVTAVDASGSPKQQFILTSPDGAGTGKVILASPETSSAKQLIFTTSDNLVPGRIQIVTDSASVERLLGKTDVQRPQVVEYCVVCGDKASGRHYGAVSCEGCKGFFKRSVRKNLTYSCRSNQDCIINKHHRNRCQFCRLKKCLEMGMKMESVQSERKPFDVQREKPSNCAASTEKIYIRKDLRSPLIATPTFVADKDGARQTGLLDPGMLVNIQQPLIREDGTVLLATDSKAETSQGALGTLANVVTSLANLSESLNNGDTSEIQPEDQSASEITRAFDTLAKALNTTDSSSSPSLADGIDTSGGGSIHVISRDQSTPIIEVEGPLLSDTHVTFKLTMPSPMPEYLNVHYICESASRLLFLSMHWARSIPAFQALGQDCNTSLVRACWNELFTLGLAQCAQVMSLSTILAAIVNHLQNSIQEDKLSGDRIKQVMEHIWKLQEFCNSMAKLDIDGYEYAYLKAIVLFSPDHPGLTSTSQIEKFQEKAQMELQDYVQKTYSEDTYRLARILVRLPALRLMSSNITEELFFTGLIGNVSIDSIIPYILKMETAEYNGQITGASL
B3: ERR2: Estrogen Related Receptor β (NR3B2, ERRb), cDNA driver (protein, UniProt O95718 1-433, looked up)
Steroid hormone receptor ERR2: MSSDDRHLGSSCGSFIKTEPSSPSSGIDALSHHSPSGSSDASGGFGLALGTHANGLDSPPMFAGAGLGGTPCRKSYEDCASGIMEDSAIKCEYMLNAIPKRLCLVCGDIASGYHYGVASCEACKAFFKRTIQGNIEYSCPATNECEITKRRRKSCQACRFMKCLKVGMLKEGVRLDRVRGGRQKYKRRLDSESSPYLSLQISPPAKKPLTKIVSYLLVAEPDKLYAMPPPGMPEGDIKALTTLCDLADRELVVIIGWAKHIPGFSSLSLGDQMSLLQSAWMEILILGIVYRSLPYDDKLVYAEDYIMDEEHSRLAGLLELYRAILQLVRRYKKLKVEKEEFVTLKALALANSDSMYIEDLEAVQKLQDLLHEALQDYELSQRHEEPWRTGKLLLTLPLLRQTAAKAVQHFYSVKLQGKVPMHKLFLEMLEAKV
B4: ERR3: Estrogen Related Receptor γ (NR3B3, ERRg), cDNA driver (protein, UniProt P62508 1-458, looked up)
Estrogen-related receptor …: MDSVELCLPESFSLHYEEELLCRMSNKDRHIDSSCSSFIKTEPSSPASLTDSVNHHSPGGSSDASGSYSSTMNGHQNGLDSPPLYPSAPILGGSGPVRKLYDDCSSTIVEDPQTKCEYMLNSMPKRLCLVCGDIASGYHYGVASCEACKAFFKRTIQGNIEYSCPATNECEITKRRRKSCQACRFMKCLKVGMLKEGVRLDRVRGGRQKYKRRIDAENSPYLNPQLVQPAKKPYNKIVSHLLVAEPEKIYAMPDPTVPDSDIKALTTLCDLADRELVVIIGWAKHIPGFSTLSLADQMSLLQSAWMEILILGVVYRSLSFEDELVYADDYIMDEDQSKLAGLLDLNNAILQLVKKYKSMKLEKEEFVTLKAIALANSDSMHIEDVEAVQKLQDVLHEALQDYEAGQHMEDPRRAGKMLMTLPLLRQTSTKAVQHFYNIKLEGKVPMHKLFLEMLEAKV
B5: Erb: Estrogen Receptor β (NR3A2, ERb), cDNA driver (protein, UniProt Q92731 1-530, looked up)
Estrogen receptor beta: MDIKNSPSSLNSPSSYNCSQSILPLEHGSIYIPSSYVDSHHEYPAMTFYSPAVMNYSIPSNVTNLEGGPGRQTTSPNVLWPTPGHLSPLVVHRQLSHLYAEPQKSPWCEARSLEHTLPVNRETLKRKVSGNRCASPVTGPGSKRDAHFCAVCSDYASGYHYGVWSCEGCKAFFKRSIQGHNDYICPATNQCTIDKNRRKSCQACRLRKCYEVGMVKCGSRRERCGYRLVRRQRSADEQLHCAGKAKRSGGHAPRVRELLLDALSPEQLVLTLLEAEPPHVLISRPSAPFTEASMMMSLTKLADKELVHMISWAKKIPGFVELSLFDQVRLLESCWMEVLMMGLMWRSIDHPGKLIFAPDLVLDRDEGKCVEGILEIFDMLLATTSRFRELKLQHKEYLCVKAMILLNSSMYPLVTATQDADSSRKLAHLLNAVTDALVWVIAKSGISSQQQSMRLANLLMLLSHVRHASNKGMEHLLNMKCKNVVPVYDLLLEMLNAHVLRGCKSSITGSECSPAEDSKSKEGSQNPQSQ
B6: CTF2: COUP-TF2 (NR2F2), cDNA driver (protein, UniProt P24468 1-414, looked up)
COUP transcription factor 2: MAMVVSTWRDPQDEVPGSQGSQASQAPPVPGPPPGAPHTPQTPGQGGPASTPAQTAAGGQGGPGGPGSDKQQQQQHIECVVCGDKSSGKHYGQFTCEGCKSFFKRSVRRNLSYTCRANRNCPIDQHHRNQCQYCRLKKCLKVGMRREAVQRGRMPPTQPTHGQFALTNGDPLNCHSYLSGYISLLLRAEPYPTSRFGSQCMQPNNIMGIENICELAARMLFSAVEWARNIPFFPDLQITDQVALLRLTWSELFVLNAAQCSMPLHVAPLLAAAGLHASPMSADRVVAFMDHIRIFQEQVEKLKALHVDSAEYSCLKAIVLFTSDACGLSDVAHVESLQEKSQCALEEYVRSQYPNQPTRFGKLLLRLPSLRTVSSSVIEQLFFVRLVGKTPIETLIRDMLLSGSSFNWPYMAIQ

system: hMyoD promoter; assay: NHR-promoter luciferase screen, hMyoD promoter; assay type: cell-based, human; settings: MyoD promoter reporter; co-transfected HR, without or with its ligand
Method in brief: (§1)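 CV-1 cells were co-transfected with 50 ng NHR (homodimer or NHR/RXR heterodimer), 100 ng promoter-luciferase construct and 50 ng LacZ. Luciferase was normalized to LacZ and to a no-NHR/no-ligand control.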

Molecule	Luc. act., normalized to lacZ
B1	44.8
B2	213.9
B3	164.8
B4	129.6
B5	50.6
B6	60.9

same assay, conditions: MyoD promoter reporter; co-transfected HR, without or with its ligand; relative to control

Molecule	Normalized Luc. act., normalized to control
B1	0.7
B2	3.4
B3	2.6
B4	2.0
B5	0.8
B6	1.0

same assay, conditions: hMyoD promoter-luciferase, CV-1 cells, NHR +/- ligand, control = 1.00

Molecule	luciferase activity normalized to lacZ activity and to a control, hMyoD
B1	0.71
B2	3.38
B3	2.60
B4	2.05
B5	0.80
B6	0.96

system: mUCP2 promoter; assay: NHR-promoter luciferase screen, mUCP2 promoter; assay type: cell-based, mouse; settings: mUCP2 promoter reporter; co-transfected HR, with or without its ligand
Method in brief: as §1

Molecule	Luc. act., normalized to lacZ
B1	67.1
B2	199.0
B3	185.1
B4	193.4
B5	114.4
B6	90.4

same assay, conditions: mUCP2 promoter reporter; co-transfected HR, with or without its ligand; relative to control

Molecule	Normalized Luc. act., normalized to control
B1	0.6
B2	1.8
B3	1.7
B4	1.8
B5	1.0
B6	0.8

same assay, conditions: mUCP2 promoter-luciferase, CV-1 cells, NHR +/- ligand, control = 1.00

Molecule	luciferase activity normalized to lacZ activity and to a control, mUCP2
B1	0.61
B2	1.81
B3	1.68
B4	1.76
B5	1.04
B6	0.82

system: mNPY promoter; assay: NHR-promoter luciferase screen, mNPY promoter; assay type: cell-based, mouse; settings: Table 6d; luciferase activity relative to control (control = 1.00)
Method in brief: as §1

Molecule	Results of assays of transcription factor (+/- ligand) with mNPY
B1	0.47
B2	2.86
B3	1.02
B4	1.11
B5	0.79
B6	0.65

same assay, conditions: mNPY promoter; HR component with or without ligand

Molecule	Luc. act., normalized to lacZ
B1	39.2
B2	239.8
B3	85.4
B4	93.1
B5	66.5
B6	54.7

same assay, conditions: mNPY promoter; HR component with or without ligand; relative to control

Molecule	Normalized Luc. act., normalized to control
B1	0.5
B2	2.9
B3	1.0
B4	1.1
B5	0.8
B6	0.7

system: MCP-1 promoter; assay: NHR-promoter luciferase screen, MCP-1 promoter; assay type: cell-based; settings: MCP-1 promoter reporter; HR without or with its ligand; relative to control
Method in brief: as §1

Molecule	Normalized Luc. act., normalized to control
B1	0.0
B2	2.1
B3	8.8
B4	4.6
B5	1.4
B6	0.0

same assay, conditions: MCP-1 promoter reporter; hormone receptor (HR) without or with its ligand

Molecule	Luc. act., normalized to lacZ
B2	229.9
B3	946.7
B4	487.3
B5	146.9

same assay, conditions: transcription factor +/- ligand; control = 1.00

Molecule	mMCP-1 promoter reporter activity
B1	0.00
B2	2.15
B3	8.84
B4	4.55
B5	1.37
B6	0.00

system: mDio2 promoter; assay: NHR-promoter luciferase screen, mDio2 promoter; assay type: cell-based, mouse; settings: Dio2; HR component without or with its ligand
Method in brief: as §1

Molecule	Luc. act., normalized to lacZ	Normalized Luc. act., normalized to control
B1	15.7	1.0
B2	51.9	3.3
B3	39.5	2.5
B4	85.6	5.4
B5	19.9	1.3
B6	18.8	1.2

same assay, conditions: transcription factor +/- ligand; control = 1.00

Molecule	mDio2 promoter reporter activity
B1	1.00
B2	3.31
B3	2.52
B4	5.45
B5	1.27
B6	1.20

system: hPPARg2 promoter; assay: NHR-promoter luciferase screen, hPPARg2 promoter; assay type: cell-based, human; settings: PPARG2 promoter; hormone receptor with or without its ligand
Method in brief: as §1

Molecule	Luc. act., normalized to lacZ
B1	1.4
B2	3.3
B3	3.2
B4	2.1
B5	2.3
B6	1.5

same assay, conditions: PPARG2 promoter; hormone receptor with or without its ligand; relative to control

Molecule	Normalized Luc. act., normalized to control
B1	0.7
B2	1.6
B3	1.6
B4	1.0
B5	1.1
B6	0.8

same assay, conditions: Table 6d; luciferase activity relative to control (control = 1.00)

Molecule	Results of assays of transcription factor (+/- ligand) with hPPARg2
B1	0.71
B2	1.65
B3	1.59
B4	1.04
B5	1.13
B6	0.76
